Publication PMC2735845 (Journal of molecular biology, 2009)

What was measured:
[1] = target: T1, E. coli single-stranded DNA-binding protein (SSB), wild type (E. coli, UniProt P0AGE0 1-178); assay: cell-based or functional assay
[2] = target: T1, E. coli single-stranded DNA-binding …; assay: ammonium sulfate co-precipitation

Binder	SSB binding in solution relative to wild type [2]	also measured
E. coli RecQ (wild type, full-length, hexahistidine-tagged) (enzyme) not shown	–	Fold stimulation of RecQ helicase activity by SSB [1]: 9.7 fold
E. coli RecQ Q428A (enzyme) not shown	~3%	–
E. coli RecQ R448A (enzyme) not shown	–	co-precipitation with SSB relative to wild-type RecQ [2]: ~80%
E. coli RecQ S421A (enzyme) not shown	~40%	–
